The results in this text go back to patent publication US9068161B2, “Laccases and uses thereof” (DEINOVE, priority 2010, dated 2015).

Substrate in data set [1]: COc1cccc(OC)c1O
Kind of data set: Laccase assay, Laccase 2 activity (oxidation of substrates, spectrophotometric). Particulars: other: 60° C., pH 8, 0.1M citrate-phosphate buffer, 0.05 mg/mL purified enzyme. The data set is classed as biochemical, Deinococcus cellulolysiticus DRH46. From the text: (§1) Two enzymes having laccase activity have been characterized from Deinococcus cellulolysiticus DRH46 (namely laccase 1, laccase 2), and one enzyme having laccase activity has been characterized from Deinococcus maricopensis DSM 21211 (i.e., laccase 3). The amino acid sequences of laccase 1, laccase 2 and laccase 3 are represented in SEQ ID NO: 2, 4 and 6, respectively.
(§2) As mentioned in Example 1, nucleic acids encoding the laccase 1, 2 and 3 enzymes comprising the amino acid sequence of SEQ ID NO: 2, 4 or 6 respectively, were cloned into the pETDEST42 vector according to conventional recombinant techniques. In each vector, the cloned nucleic acid was cloned in frame with a 6(His) tag (SEQ ID NO: 7), to facilitate purification of the recombinant protein.
(§3) E. coli cells harboring the recombinant nucleic acid are prepared and grown in 4 liters of LB medium. Induction of the enzyme production is performed overnight in the presence of 1 mM IPTG and 2 mM of […]. […]
(§4) The assay is performed at T=45° C. and 60° C., pH=8. The absorbance was measured at A470 nm and the measure was carried out using Continuous Spectrophotometric Rate Determination. […]
(§5) Reagent A (185 μl) was mixed with Reagent B (10 μl). […] The absorbance at 470 nm was monitored until constant, using a suitably thermoregulated spectrophotometer. Then Reagent C (5 μl) was added and the increase in A470 nm was recorded for 30 minutes. […]

Substrate in data set [2]: COc1ccccc1O
The data set is described as above. Particulars: other: 60° C., pH 8, 0.1M citrate-phosphate buffer, 0.05 mg/mL purified enzyme. The data set is classed as biochemical, Deinococcus cellulolysiticus DRH46.
Text: as §1, §2, §3, §4, §5

A short description of data set [3]: Temperature and pH optimum of laccase activity. The settings on record: 2,6 DMP as substrate. The data set is classed as biochemical. The protocol: (§6) Standard assays for laccase activity were performed at the temperature range from 30° C. to 90° C. by measurement of enzymatic oxidation of substrates at appropriate wavelength. The reaction was performed in presence of a substrate concentration range, 0.05 mg/mL of purified enzyme and 1 mM prepared in 0.1M citrate-phosphate buffer pH8.
In another series of experiments, the laccase activity according to the invention, was also tested in different conditions of temperature and pH using various substrates.

Data set [4] is described as follows: Laccase assay, overall conclusion on recombinant enzyme. Format: biochemical. Particulars: in the tested conditions. The protocol:
as §6
Standard assays were performed using the following substrates: 2,6 DMP, 4-methyl DMP, synapic acid, syringic acid, guaiacol, ABTS, paraphenylenediamine and ferulic acid.
Reagent A (185 μl) was mixed with Reagent B (10 μl). The mixture was equilibrated to 45° C. or 60° C. The absorbance at 470 nm was monitored until constant, using a suitably thermoregulated spectrophotometer. Then Reagent C (5 μl) was added and the increase in A470 nm was recorded for 30 minutes. The ΔA470 nm/minute was obtained using the maximum linear rate for the Test, Control and Blank, Blank being mixture without enzyme and Control being mixture with laccase from Trametes versicolor (T. versicolor, commercial enzyme) replacing Laccase enzyme solution (Reagent C).
Other substrates, different from 2,6 DMP such as 4-methyl DMP, synapic acid, syringic acid, guaiacol, ABTS, paraphenylenediamine and ferulic acid have also been tested at optimal concentration for each substrate (as shown in Tables 1A and 1B).

Substrate in data set [5]: COc1cccc(OC)c1O
Kind of data set: Laccase assay, Laccase 1 activity (oxidation of substrates, spectrophotometric). The data set is classed as biochemical, Deinococcus cellulolysiticus DRH46. The settings on record: other: 60° C., pH 8, 0.1M citrate-phosphate buffer, 0.05 mg/mL purified enzyme.
Text: as §1, §2, §3, §4, §5

Substrate in data set [6]: COc1ccccc1O
The data set is described as above. The data set is classed as biochemical, Deinococcus cellulolysiticus DRH46. The settings on record: other: 60° C., pH 8, 0.1M citrate-phosphate buffer, 0.05 mg/mL purified enzyme.
Text: as §1, §2, §3, §4, §5

B1: Deinococcus cellulolysiticus DRH46 laccase 2, recombinant, SEQ ID NO: 4 (Deinococcus cellulosilyticus NBRC 106333 = KACC 11606) (protein)
chain: PKGSPMTEYHNPAEVQASRTEKGSTFTLTAAETSITLDGKEVKAQLFNQSFPGPQLTLQAGEQVNLTLKNDLREPTNLHLHGLTLPAGVDDPFLQVQPGESHTYSFTVPQGLHGTFWYHTHTHGHLGTQLFQGLAGPLIVEDPTFDSHIQGMETHTVVLKDLPVEVQDSDGTRMNGREGKLLVNGLSSPTLKTESSWVRLRLINASNARYDLLKLSGSAFLHVIAKDGIDLPKTEQVKELLLTPGERADVLISVQDQQDLRLENHPYDRGVHEMDGGHQGHTPSTPEVLLTLQGKKGSVSASVPQPALQPRPFLKVTGNEAIRKVVLQETMQPVKFFINGRTFDMNRVDFHVSEGTTEIWEVENQTEMDHPFHLHTFPVQVLSVNGQEVPPVWKDTVNVPAKAKVQVAVKFEGFTGKTVFHCHIAEHEEEGMMGVLQVHPAGEALPASLTPTLPPAAASEDMPDMPGMDHSGH
Consider B1, for which the Km was found to be 992 ± 141 µM in data set [1] and 5074 ± 343 µM in data set [2].

B2: Laccase 2: enzyme having laccase activity from Deinococcus cellulolysiticus DRH46, amino acid sequence SEQ ID NO: 4, recombinant with 6(His) tag (protein)
chain: MIRTLTSLTLLTVALTACAPKGSPMTEYHNPAEVQASRTEKGSTFTLTAAETSITLDGKEVKAQLFNQSFPGPQLTLQAGEQVNLTLKNDLREPTNLHLHGLTLPAGVDDPFLQVQPGESHTYSFTVPQGLHGTFWYHTHTHGHLGTQLFQGLAGPLIVEDPTFDSHIQGMETHTVVLKDLPVEVQDSDGTRMNGREGKLLVNGLSSPTLKTESSWVRLRLINASNARYDLLKLSGSAFLHVIAKDGIDLPKTEQVKELLLTPGERADVLISVQDQQDLRLENHPYDRGVHEMDGGHQGHTPSTPEVLLTLQGKKGSVSASVPQPALQPRPFLKVTGNEAIRKVVLQETMQPVKFFINGRTFDMNRVDFHVSEGTTEIWEVENQTEMDHPFHLHTFPVQVLSVNGQEVPPVWKDTVNVPAKAKVQVAVKFEGFTGKTVFHCHIAEHEEEGMMGVLQVHPAGEALPASLTPTLPPAAASEDMPDMPGMDHSGH
modifications: 6xHis tag; Laccase 2 derived from Deinococcus cellulolyticus DRH46
Consider B2, for which, in data set [3], the “Optimal pH” value amounted to 8 and the Optimal temperature was found to be 70 °C. Besides, the “Laccase activity of the recombinant enzyme” value in data set [4] is listed as “fully active”.

B3: Laccase 1: enzyme having laccase activity from Deinococcus cellulolysiticus DRH46, amino acid sequence SEQ ID NO: 2, recombinant with 6(His) tag (protein)
chain: MKQRLTAAALLTALLSSCAMKNPDVISYQDPEPLAGQRSGKAAEFTLTAQKSRLDLAGQSVEALTYNGTFPGPLLTLKAGEDVRITLKNNLSEPTNLHLHGLPLSPEVDDPFVVVPPGGSHTYAFQVPEEVHGTFWYHTHTHGASAAQLFSGLAGPLLVEAAKPNNPIEHMETHTVVFKDLPGAQHADDGVLMNGRENTLLVNGLVSPTLKTENSWVQLRLINASNARYLRLKLDDGLLQVVARDGIDLPGMERAQELLLTPGERADVLVSLQDHQNLKLQNLPYDRGVHSMGSHSGHTESKTAVVLTLQGPQKPGASVPRVETAPPPFLQLQGNEKVRKVILQETMQPVKFFINGRSFDMNRVDFHVSEGSTEIWELQNTTEMDHPFHLHTFPMQLIRIGGKEVPPVWKDTVNIPKNSTVTVAVHFKGFTGKTVFHCHIAEHEEAGMMGLLQVHPSGTALPASLEPIEPTVGPGEDAQHGH
modifications: 6xHis tag; Laccase 1 derived from Deinococcus cellulolyticus DRH46
On to B3, for which, in data set [3], the “Optimal pH” value is 8 and the Optimal temperature is 90 °C. In addition, in data set [4], the “Laccase activity of the recombinant enzyme” value is given as “fully active”.

B4: Deinococcus cellulolysiticus DRH46 laccase 1, recombinant, SEQ ID NO: 2 (Deinococcus cellulosilyticus NBRC 106333 = KACC 11606) (protein)
chain: NPDVISYQDPEPLAGQRSGKAAEFTLTAQKSRLDLAGQSVEALTYNGTFPGPLLTLKAGEDVRITLKNNLSEPTNLHLHGLPLSPEVDDPFVVVPPGGSHTYAFQVPEEVHGTFWYHTHTHGASAAQLFSGLAGPLLVEAAKPNNPIEHMETHTVVFKDLPGAQHADDGVLMNGRENTLLVNGLVSPTLKTENSWVQLRLINASNARYLRLKLDDGLLQVVARDGIDLPGMERAQELLLTPGERADVLVSLQDHQNLKLQNLPYDRGVHSMGSHSGHTESKTAVVLTLQGPQKPGASVPRVETAPPPFLQLQGNEKVRKVILQETMQPVKFFINGRSFDMNRVDFHVSEGSTEIWELQNTTEMDHPFHLHTFPMQLIRIGGKEVPPVWKDTVNIPKNSTVTVAVHFKGFTGKTVFHCHIAEHEEAGMMGLLQVHPSGTALPASLEPIEPTVGPGEDAQHGH
As for B4, the Km is 798 ± 35 µM in data set [5] and 3046 ± 183 µM in data set [6].
